Experimental data: PMC9772109 (Immunity, 2022)

Biological target: H1 HA (recombinant HA of Figure 4E) (Influenza A virus, H1 subtype; strain …, UniProt A0A1J0CXU0)
Assay: BLI

B1: mAb 789-203-3C12 (IgG) (antibody, V domains shown)
VH: QVQLQESGPGLVKPSEILSLTCAVSGGSFSSYCWGWIRQPPGKGLEWIGSICGSGGSNYLNPSLKSRVTLSVDTSKNQFSLILNSVTAADTAVYYCAREGITIFGVVIPRVLDSWGQGAVVTVSS
VL: DIQMTQSPSSLSASVGDTVTITCRASQSISSWLAWYQQKPGKAPNLLIYRASTLQSGVPSRFSGSGSGTDFTLTISSLQSEDFATYFCQQSTSSPFTFGPGTKLDIK
Does B1 bind?
Result: binds
